Experimental data: PMC11908141 (bioRxiv, 2025)

Molecular target: the molecule itself
Assay: cryo-EM structure

B1: enolase, native, Francisella novicida (enzyme)
chain: MSSQIKQVFARQILDSRGNPTVEVDVVLESGAFGRAAVPSGASTGIREALELRDGNKALFLGKSVYKAVENVNTKIAQAVKGLDALDQRLIDKTMIELDGSENKKNLGANAILGVSLATARAAASHLRKPFYRYLMDVKEYLMPVPMMNVINGGSHADNNVDMQEFMIVPAGFDTFSEALRCGTEVFHTLKKVLIADGYSVAGVGDEGGYAPDLPSNEAAIEAILKAVKEAGYEPGKHVFIALDPASSEFYKDGKYELKSENKSLTSEEMIDYYAAWVEKYPIVSIEDGLAEEDWAGWKLLTEKLGNKVQLVGDDLFVTNPSILAKGIEKGIANSILIKLNQIGTLTETFEAMAMAGQAGYTCVVSHRSGETSDTIIADLAVATCSGQIKTGSLSRSDRIAKYNQLLRIEEELGENAIYPGIKAFVFNSDEEVEEDVQEIIVEDSEAEKVVVQVEE
For B1, the “stoichiometry N” value was 2.
